Data published in patent US20050267061.
pKd: −log10 of the molar value.

In the case of “ATGGACGGG (double strand) [BVO 13A / MX1E target]”, the pKd (BVO 13A (synthetic)) was > 10.70 and the pKd (MX1E (synthetic)) was 8.47.
“GAGGCTTGG (double strand) [VOP 29A-3 target]” was tested, and the pKd (VOP 29A-3 (synthetic)) was > 10.70.
“GCCGGGGAG (double strand) [USX 3A target]” showed a pKd (USX 3A (synthetic)) of 10.22.
In the case of “GCTGGAGCA (double strand) [VOP 35A-10 target]”, the pKd (VOP 35A-10 (synthetic)) was > 10.70.
In the case of “GCTGGGGGC (double strand) [VOP 30A-4 target]”, the pKd (VOP 30A-4 (synthetic)) was > 10.70.
For “GGDTGGGGG (double strand) [HP38 4A target]”, the pKd (HP38 4A (synthetic)) was 9.12.
With “GGGGAGGAT (double strand) [VEGF 1B target]” the pKd (VEGF 1B (synthetic)) was 8.70.
“GGGGGCGCT (double strand) [VOP 28A-2 target]” was tested, and the pKd (VOP 28A-2 (synthetic)) was > 10.70.
In the case of “GGGGGTGAC (double strand) [VOP 32 target]”, the pKd (VOP 32A-6 (synthetic)) was > 10.70 and the pKd (VOP 32B-7 (synthetic)) was > 10.70.
Sequence “TGGGCAGAC (double strand) [HUM 19A target]” has a pKd (HUM 19A (synthetic)) of 10.70.
“TGGGGGTGG (double strand) [MTS 5A target]” showed a pKd (MTS 5A (synthetic)) of 10.15.
